Results taken from paper PMC10127613 (mBio, 2023).

Key:
Clr [1] = target: T1, Clr (Sinorhizobium meliloti, UniProt Q92SD2); assay: isothermal titration calorimetry; format: binding
T1 construct: gene SMc02175

[2] = target: Sinorhizobium meliloti Clr, C-terminally His6-tagged (Sinorhizobium meliloti); assay: SEC; apo-Clr in solution (no cNMP, no DNA); dimer to monomers
[3] = target: Sinorhizobium meliloti Clr, C-terminally His6-tagged (Sinorhizobium meliloti); assay: crystal structure; Clr (0.25 or 0.44 mM) with 25 mM cAMP or cGMP, 25 mM MgCl2 and 1.25-fold excess of 19-mer/14-mer duplex CBS-DNA; sitting-drop vapor diffusion, 291 K (cAMP) or 281 K (cGMP)
Clr [4] = target: T2, Clr (Sinorhizobium meliloti, UniProt Q92SD2 1-234); assay: ITC; 1 mM cAMP; EMSA: 2 mM HEPES pH 7.0, 30 mM NaCl, 50 mM KCl, 850 ng salmon sperm DNA, 1 ug BSA, 20 ng Cy3-DNA, 3 ug Clr in 10 uL, 1 mM cAMP, room temperature. ITC: 20 mM HEPES, 300 mM NaCl, 20 mM MgCl2, pH 7.0, 25 C; details: protein: recombinant; tags: C-terminal His6 (pET36b, NdeI/XhoI); chain copies: 2; two copies of each strand; duplex arms joined by palindromic 5' overhang CTAG (4 nt) of the 19-mer, 1 nt 3' overhang G; nicked
T2 sequence: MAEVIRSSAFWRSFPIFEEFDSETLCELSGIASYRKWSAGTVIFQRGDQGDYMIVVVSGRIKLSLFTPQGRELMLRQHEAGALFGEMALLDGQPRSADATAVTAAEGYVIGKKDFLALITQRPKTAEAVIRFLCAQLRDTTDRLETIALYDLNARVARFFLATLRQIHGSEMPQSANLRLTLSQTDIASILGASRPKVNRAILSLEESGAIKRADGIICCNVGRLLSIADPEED

In the case of `Nc1nc2c(ncn2[C@@H]2O[C@@H]3COP(=O)(O)O[C@H]3[C@H]2O)c(=O)[nH]1` [cGMP], the Kd (Clr [1]) is reported as 23.8 ± 14.5 µM.

In the case of “Sinorhizobium meliloti Clr, C-terminally His6-tagged”, the percent in the monomeric state [2] is reported as 86% and the stoichiometry N [2] is reported as 2.

In the case of “Sinorhizobium meliloti Clr, C-terminally His6-tagged (natural protein)”, the stoichiometry N [3] is reported as 2.

B1: CBS-DNA, two identical 19-mer/14-mer duplexes joined by palindromic CTAG sticky ends (nicked 33-nt) (dsDNA)
DNA 1: CTAGGTAACATTACTCGCG
DNA 2: GCGAGTAATGTTAC
DNA 3: CTAGGTAACATTACTCGCG
DNA 4: GCGAGTAATGTTAC
Molecule B1 has a Kd (Clr [4]) of 6 ± 4.7 µM.
